The record followed here is PMC11422484 (Cell Reports, 2024).

For this assay, the target named is full-length native GPC (strain Josiah) expressed on HEK293T cells (Lassa virus, strain Josiah, UniProt P08669). As to the kind of experiment: flow cytometry on cells. The note with it: one partner purified.

B1: 25.10C IgG (antibody, V domains shown)
VH: QVQLQESGGGLVKPGGSLRLSCTASGFNFNKYNMNWVRQAPGKGLEWVSSISALSTYIYYADSLKGRFTVSRDNAKNSLFLQMNSLRDDDTAVYYCAREIRRASTWSADLWGRGTLVTVSS
VL: DIQMTQSPSSLSASVGDRVIITCRASQSISSSLNWYQQKPGKAPKLLIYAAVNLETGVPSRFSGSGFGTDFTLAISNVQPEDFATYYCQQSDTRTFGRGTKLDVK
notes: IgG1
Turning to B1, the binding result was “binds”.
